Assay results from patent publication US20180305695.

Target: von Willebrand factor A1 domain (Homo sapiens) (UniProt P04275)
Experiment: SPR
Conditions: 37 C

## CGTGACCGANGAGCACCTAACNGGTCTCAACGNTGGAGGTCACG [vWF2-DsDsDs]
N = Ds at 3 positions, likely pM (protein 0.078-5 nM)
  Kd: 7.49e+07 pM

## CGAGGCTCCCCANCTTTCGCCNACANCCGAGGGAGCCTCGCGCGTAGCG [vWF1-DsDsDs-mhGC]
N = Ds at 3 positions, phosphate buffer 155 mM NaCl, 0.05% NP-40, koff 0.00159 1/s, printed as GCmh
  Kd: 780 pM

## CGCGGCCGANGAGCACCGAAGGTCTCAACGNTGGAGGCCGCGCGCGTAGCG [vWF2-DsDsDs-2mhGC]
N = Ds, likely pM (protein 0.078-5 nM)
  Kd: 6.13e+07 pM

## TGAGACTCCCCANCTTTCGCCNACANCCGAGGGAGTCTCA [vWF1-DsDsDs]
N = Ds (7-(2-thienyl)-3H-imidazo[4,5-b]pyridin-3-yl) at 3 positions, phosphate buffer 155 mM NaCl, 0.05% NP-40
  Kd: 1030 pM

## CGAGGCTCCCCANCTTTCGCCNACANCCGAGGGAGCCTCG [vWF1-DsDsDs-GC]
N = Ds at 3 positions, phosphate buffer 155 mM NaCl, 0.05% NP-40
  Kd: 1080 pM
